Experimental data as given in PMC1904285.

How the values were obtained:
[1] = molecular target: His6-CspB (major cold shock protein);SsoSSB (Bacillus subtilis;Sulfolobus …, UniProt P32081;Q97W73 1-67;1-148, |); experiment: EMSA
[2] = molecular target: T1, His6-CspB (major cold shock protein) (Bacillus subtilis, UniProt P32081 1-67); experiment: competition EMSA
SsoSSB = molecular target: T2, SsoSSB (Sulfolobus solfataricus, UniProt Q97W73 1-148); experiment: EMSA
T2 sequence: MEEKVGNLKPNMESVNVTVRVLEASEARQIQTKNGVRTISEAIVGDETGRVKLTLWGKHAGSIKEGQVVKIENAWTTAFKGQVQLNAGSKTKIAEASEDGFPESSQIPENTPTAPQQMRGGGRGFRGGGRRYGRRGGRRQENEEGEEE

[3] = molecular target: T1, His6-CspB (major cold shock protein); experiment: EMSA
SsoSSB-Cy5 = molecular target: T3, SsoSSB-Cy5 (Sulfolobus solfataricus, UniProt Q97W73 1-148); experiment: EMSA
T3 sequence: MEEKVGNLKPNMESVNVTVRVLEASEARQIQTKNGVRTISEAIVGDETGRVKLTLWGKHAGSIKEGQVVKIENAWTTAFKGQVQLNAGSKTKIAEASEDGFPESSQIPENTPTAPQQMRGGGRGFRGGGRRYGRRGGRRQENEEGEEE

CspB (untagged) = CspB (untagged) (Bacillus subtilis, UniProt P32081 1-67); experiment: EMSA
[4] = molecular target: T1, His6-CspB (major cold shock protein); experiment: ITC

T1 sequence (P32081 whole entry): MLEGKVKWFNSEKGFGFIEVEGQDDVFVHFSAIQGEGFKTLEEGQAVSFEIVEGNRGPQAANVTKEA
Sequence of CspB (untagged) (P32081 whole entry): as above
Sequence of His6-CspB (major cold shock protein);SsoSSB (P32081 whole entry, one chain of several): as the sequence (P32081 whole entry) above

AAAAAAAAAAGCACTTAAAAAAAAA (ssDNA) [ON-Mt]: binds [1]; binds [2].

ATCCTACTGATTGGCCAAGGTGCTG (ssDNA) [ONc]: binds (SsoSSB); binds [3]; binds (SsoSSB-Cy5). ATCCTACTGATTGGCCAAGGTGCTG (ssDNA) [ONc]: binds (CspB (untagged)).

GTCTTTG (ssDNA) [ITC1 (consensus variant GTCTTTG)]: binds [4].

GTCTTTT (ssDNA) [ITC2 (consensus variant GTCTTTT)]: binds [4].
